This is an account of results in US20260250381A1.

Assay [1] deals with T1, human TREM2 (human) (UniProt Q9NZC2).
T1 sequence (looked up): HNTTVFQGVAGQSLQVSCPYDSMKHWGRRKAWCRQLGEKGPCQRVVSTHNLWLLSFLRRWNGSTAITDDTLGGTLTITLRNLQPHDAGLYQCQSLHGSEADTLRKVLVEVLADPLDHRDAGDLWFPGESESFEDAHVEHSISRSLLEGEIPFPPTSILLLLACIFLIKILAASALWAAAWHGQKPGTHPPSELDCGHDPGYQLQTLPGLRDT
In words: 2nd screen, 2 nM Ab.

The target in assay [2] is T1, human TREM2 (human). In words: 2nd screen, 10 nM Ab.
The target of assay [3] is T1, human TREM2 (human). In words: 1st screen, 10 nM Ab.
For assay [4], the target named is T1, human TREM2 (human). In words: 1st screen, 110 nM Ab.
The target of assay [5] is T1, human TREM2 (human). In words: 2nd screen, 100 nM Ab.

B1: 6E7 variant V36 (antibody, V domains shown)
VH: EVQLVQSGAEVKKPGESLKISCKGSGYSFTSYWLAWVRQMPGKGLEWMGIIYPGDSDTRYSPSFQGQVTISADKSISTAYLQWSSLKASDTAMYFCARSRTFYYDSSDYFDYWGQGTLVTVSS
VL: DIQMTQSPSSVSASVGDRVTITCRASQGISSWLAWYQQKPGKAPKLLIYAASSRQNGVPSRFSGSGSGTDFTLTISSLQPEDFATYFCQQADSYPRTFGQGTKLEIK
Regarding B1, the Binding Signal (fold over 6E7 parental antibody) in assay [1] is 4 fold; in assay [2], 3.44 fold; in assay [3] it was 3.38 fold.

B2: 6E7 variant V30 (antibody, V domains shown)
VH: EVQLVQSGAEVKKPGESLKISCKGSGSSFTSYWIAWVRQMPGKGLEWMGIIYPGDSDTRYSPSFQGQVTISADKSISTAYLQWSSLKASDTAMYFCARQRTFYYDSSDYFDYWGQGTLVTVSS
VL: DIQMTQSPSSVSASVGDRVTITCRASQGISSWLAWYQQKPGKAPKLLIYAASSLQNGVPSRFSGSGSGTDFTLTISSLQPEDFATYFCQQADSFPRTFGQGTKLEIK
For B2, the Binding Signal (fold over 6E7 parental antibody) in assay [4] was 0.79 fold; in assay [5] it was 0.72 fold.

B3: 6E7 variant V38 (antibody, V domains shown)
VH: EVQLVQSGAEVKKPGESLKISCKGSGYSFGSYWIAWVRQMPGKGLEWMGIIYPGDSDVRYSPSFQGQVTISADKSISTAYLQWSSLKASDTAMYFCARQRTFYYDSSDYFDYWGQGTLVTVSS
VL: DIQMTQSPSSVSASVGDRVTITCRASQGISSWLAWYQQKPGKAPKLLIYAASSRQNGVPSRFSGSGSGTDFTLTISSLQPEDFATYFCQQADSHPRTFGQGTKLEIK
For the molecule B3, the Binding Signal (fold over 6E7 parental antibody) in assay [1] worked out at 3.44 fold; in assay [2], 4.36 fold; in assay [3], 4.34 fold.

B4: 6E7 variant V21 (antibody, V domains shown)
VH: EVQLVQSGAEVKKPGESLKISCKGSGYSFTSYWIAWVRQMPGKGLEWMGIIYPGDSDTRYSPSFQGQVTISADKSISTAYLQWSSLKASDTAMYFCARQRTFYYDSSDFFDYWGQGTLVTVSS
VL: DIQMTQSPSSVSASVGDRVTITCRASQGISSWLAWYQQKPGKAPKLLIYAASSLQNGVPSRFSGSGSGTDFTLTISSLQPEDFATYFCQQADSFPRTFGQGTKLEIK
For B4, the Binding Signal (fold over 6E7 parental antibody) in assay [4] turned out to be 0.76 fold; in assay [5] it was 0.68 fold.

B5: 6E7 variant V8 (antibody, V domains shown)
VH: EVQLVQSGAEVKKPGESLKISCKGSGYSFTSYWIAWVRQMPGKGLEWMGIIYPGDSDTKYSPSFQGQVTISADKSISTAYLQWSSLKASDTAMYFCARQRTFYYDSSDYFDYWGQGTLVTVSS
VL: DIQMTQSPSSVSASVGDRVTITCRASQGISSWLAWYQQKPGKAPKLLIYAASSLQNGVPSRFSGSGSGTDFTLTISSLQPEDFATYFCQQADSFPRTFGQGTKLEIK
With B5, the Binding Signal (fold over 6E7 parental antibody) in assay [4] worked out at 0.28 fold; in assay [5], 0.77 fold.

B6: 6E7 variant V22 (antibody, V domains shown)
VH: EVQLVQSGAEVKKPGESLKISCKGSGYSFTSYWIAWVRQMPGKGLEWMGIIYPGDSDTRYSPSFQGQVTISADKSISTAYLQWSSLKASDTAMYFCARQRTFYYDSSDYFDYWGQGTLVTVSS
VL: DIQMTQSPSSVSASVGDRVTITCRASQGISSWLAWYQQKPGKAPKLLIYRASSLQNGVPSRFSGSGSGTDFTLTISSLQPEDFATYFCQQADSFPRTFGQGTKLEIK
For the molecule B6, the figures for the Binding Signal (fold over 6E7 parental antibody) in assay [4] and in assay [5] were 0.3 fold and 0.71 fold, respectively.

B7: 6E7 variant V18 (antibody, V domains shown)
VH: EVQLVQSGAEVKKPGESLKISCKGSGYSFTSYHIAWVRQMPGKGLEWMGIIYPGDSDTRYSPSFQGQVTISADKSISTAYLQWSSLKASDTAMYFCARQRTFYYDSSDYFDYWGQGTLVTVSS
VL: DIQMTQSPSSVSASVGDRVTITCRASQGISSWLAWYQQKPGKAPKLLIYAASSLQNGVPSRFSGSGSGTDFTLTISSLQPEDFATYFCQQADSFPRTFGQGTKLEIK
In the case of B7, the Binding Signal (fold over 6E7 parental antibody) in assay [4] came out at 0.17 fold; in assay [5], 0.42 fold.

B8: 6E7 variant V9 (antibody, V domains shown)
VH: EVQLVQSGAEVKKPGESLKISCKGSGYSFTSYWIAWVRQMPGKGLEWMGIIYPGDSDTRYSPSFQGQVTISADKSISTAYLQWSSLKASDTAMYFCARQRGFYYDSSDYFDYWGQGTLVTVSS
VL: DIQMTQSPSSVSASVGDRVTITCRASQGISSWLAWYQQKPGKAPKLLIYAASSLQNGVPSRFSGSGSGTDFTLTISSLQPEDFATYFCQQADSFPRTFGQGTKLEIK
As to B8, the Binding Signal (fold over 6E7 parental antibody) in assay [4] was determined as 0.67 fold; in assay [5], 0.54 fold.

B9: 6E7 variant V32 (antibody, V domains shown)
VH: EVQLVQSGAEVKKPGESLKISCKGSGYSFTSYWIAWVRQMPGKGLEWMGIIYPGDSDTRYSNSFQGQVTISADKSISTAYLQWSSLKASDTAMYFCARQRTFYYDSSDYFDYWGQGTLVTVSS
VL: DIQMTQSPSSVSASVGDRVTITCRASQGISSWLAWYQQKPGKAPKLLIYAASSLQNGVPSRFSGSGSGTDFTLTISSLQPEDFATYFCQQADSFPRTFGQGTKLEIK
Turning to B9, the Binding Signal (fold over 6E7 parental antibody) in assay [4] is 0.82 fold; in assay [5], 0.89 fold.

B10: 6E7 variant V31 (antibody, V domains shown)
VH: EVQLVQSGAEVKKPGESLKISCKGSGYSFTSYWIAWVRQMPGKGLEWMGIIYPGDSETRYSPSFQGQVTISADKSISTAYLQWSSLKASDTAMYFCARQRTFYYDSSDYFDYWGQGTLVTVSS
VL: DIQMTQSPSSVSASVGDRVTITCRASQGISSWLAWYQQKPGKAPKLLIYAASSLQNGVPSRFSGSGSGTDFTLTISSLQPEDFATYFCQQADSFPRTFGQGTKLEIK
On to B10, for which the Binding Signal (fold over 6E7 parental antibody) in assay [4] came out at 0.61 fold; in assay [5], 0.73 fold.

B11: 6E7 variant V10 (antibody, V domains shown)
VH: EVQLVQSGAEVKKPGESLKISCKGSGYSFTSYWIAWVRQMPGKGLEWMGIIYPGDSDTRYSPSFQGQVTISADKSISTAYLQWSSLKASDTAMYFCARQRTFYYDSSDYFDYWGQGTLVTVSS
VL: DIQMTQSPSSVSASVGDRVTITCRASQGISSWLAWYQQKPGKAPKLLIYSASSLQNGVPSRFSGSGSGTDFTLTISSLQPEDFATYFCQQADSFPRTFGQGTKLEIK
Turning to B11, the Binding Signal (fold over 6E7 parental antibody) in assay [4] was 0.76 fold; in assay [5], 0.7 fold.

B12: 6E7 variant V37 (antibody, V domains shown)
VH: EVQLVQSGAEVKKPGESLKISCKGSGYSHTSYWIAWVRQMPGKGLEWMGIIYPGDSDTRYSPSFAGQVTISADKSISTAYLQWSSLKASDTAMYFCARSRTFYYDSSDYFDYWGQGTLVTVSS
VL: DIQMTQSPSSVSASVGDRVTITCRASQGISSWLAWYQQKPGKAPKLLIYAASSLQWGVPSRFSGSGSGTDFTLTISSLQPEDFATYFCQQADSYPRTFGQGTKLEIK
Consider B12, for which the figures for the Binding Signal (fold over 6E7 parental antibody) in assay [1], in assay [2] and in assay [3] were 3.69 fold, 3.49 fold and 3.46 fold, respectively.

B13: 6E7 variant V23 (antibody, V domains shown)
VH: EVQLVQSGAEVKKPGESLKISCKGSGYSFTSYWIAWVRQMPGKGLEWMGIIYPGDSDTRYSPSFQGQVTISADKSISTAYLQWSSLKASDTAMYFCARQRTFYYDSSDYFDYWGQGTLVTVSS
VL: DIQMTQSPSSVSASVGDRVTITCRASQGISSWLAWYQQKPGKAPKLLIYAASSLQNGVPSRFSGSGSGTDFTLTISSLQPEDFATYFCQQADSFPLTFGQGTKLEIK
As to B13, the Binding Signal (fold over 6E7 parental antibody) in assay [4] and in assay [5] was 0.4 fold each time.

B14: 6E7 variant V33 (antibody, V domains shown)
VH: EVQLVQSGAEVKKPGESLKISCKGSGYSFTSYWIAWVRQMPGKGLEWMGIIYPGDSDTRYSPSFQGQVTISADKSISTAYLQWSSLKASDTAMYFCARQRTFYGDSSDYFDYWGQGTLVTVSS
VL: DIQMTQSPSSVSASVGDRVTITCRASQGISSWLAWYQQKPGKAPKLLIYAASSLQNGVPSRFSGSGSGTDFTLTISSLQPEDFATYFCQQADSFPRTFGQGTKLEIK
On to B14, for which the figures for the Binding Signal (fold over 6E7 parental antibody) in assay [4] and in assay [5] were 0.23 fold and 0.34 fold, respectively.

B15: 6E7 variant V19 (antibody, V domains shown)
VH: EVQLVQSGAEVKKPGESLKISCKGSGYSFTSSWIAWVRQMPGKGLEWMGIIYPGDSDTRYSPSFQGQVTISADKSISTAYLQWSSLKASDTAMYFCARQRTFYYDSSDYFDYWGQGTLVTVSS
VL: DIQMTQSPSSVSASVGDRVTITCRASQGISSWLAWYQQKPGKAPKLLIYAASSLQNGVPSRFSGSGSGTDFTLTISSLQPEDFATYFCQQADSFPRTFGQGTKLEIK
On to B15, for which the Binding Signal (fold over 6E7 parental antibody) in assay [4] is 0.59 fold; in assay [5], 0.48 fold.

B16: 6E7 variant V20 (antibody, V domains shown)
VH: EVQLVQSGAEVKKPGESLKISCKGSGYSFTSYWIAWVRQMPGKGLEWMGRIYPGDSDTRYSPSFQGQVTISADKSISTAYLQWSSLKASDTAMYFCARQRTFYYDSSDYFDYWGQGTLVTVSS
VL: DIQMTQSPSSVSASVGDRVTITCRASQGISSWLAWYQQKPGKAPKLLIYAASSLQNGVPSRFSGSGSGTDFTLTISSLQPEDFATYFCQQADSFPRTFGQGTKLEIK
B16: the Binding Signal (fold over 6E7 parental antibody) in assay [4] is 0.18 fold; in assay [5] it was 0.52 fold.

B17: 6E7 variant V11 (antibody, V domains shown)
VH: EVQLVQSGAEVKKPGESLKISCKGSGYSFTSYWIAWVRQMPGKGLEWMGIIYPGDSDTRYSPSFQGQVTISADKSISTAYLQWSSLKASDTAMYFCARQRTFYYDSSDYFDYWGQGTLVTVSS
VL: DIQMTQSPSSVSASVGDRVTITCRASQGISSWLAWYQQKPGKAPKLLIYAASSLQNGVPSRFSGSGSGTDFTLTISSLQPEDFATYFCQQAASFPRTFGQGTKLEIK
On to B17, for which the Binding Signal (fold over 6E7 parental antibody) in assay [4] stood at 0.79 fold; in assay [5], 0.42 fold.
